Data as given in US20110263454A1, “Methods of Identifying Functional Characteristics of Promoters, Transcription Modifying Proteins and Transcription Modulating Agents” (Salk Institute for Biological Studies, priority 2008, published 2011).

B1: HNF4a: Hepatocyte Nuclear Factor α (NR2A1), cDNA driver (protein, UniProt P41235 1-474, looked up)
Hepatocyte nuclear factor …: MRLSKTLVDMDMADYSAALDPAYTTLEFENVQVLTMGNDTSPSEGTNLNAPNSLGVSALCAICGDRATGKHYGASSCDGCKGFFRRSVRKNHMYSCRFSRQCVVDKDKRNQCRYCRLKKCFRAGMKKEAVQNERDRISTRRSSYEDSSLPSINALLQAEVLSRQITSPVSGINGDIRAKKIASIADVCESMKEQLLVLVEWAKYIPAFCELPLDDQVALLRAHAGEHLLLGATKRSMVFKDVLLLGNDYIVPRHCPELAEMSRVSIRILDELVLPFQELQIDDNEYAYLKAIIFFDPDAKGLSDPGKIKRLRSQVQVSLEDYINDRQYDSRGRFGELLLLLPTLQSITWQMIEQIQFIKLFGMAKIDNLLQEMLLGGSPSDAPHAHHPLHPHLMQEHMGTNVIVANTMPTHLSNGQMCEWPRPRGQAATPETPQPSPPGGSGSEPYKLLPGAVATIVKPLSAIPQPTITKQEVI
B2: RORg: RAR-related Orphan Receptor γ (NR1F3), cDNA driver (protein, UniProt P51449 1-518, looked up)
Nuclear receptor ROR-gamma: MDRAPQRQHRASRELLAAKKTHTSQIEVIPCKICGDKSSGIHYGVITCEGCKGFFRRSQRCNAAYSCTRQQNCPIDRTSRNRCQHCRLQKCLALGMSRDAVKFGRMSKKQRDSLHAEVQKQLQQRQQQQQEPVVKTPPAGAQGADTLTYTLGLPDGQLPLGSSPDLPEASACPPGLLKASGSGPSYSNNLAKAGLNGASCHLEYSPERGKAEGRESFYSTGSQLTPDRCGLRFEEHRHPGLGELGQGPDSYGSPSFRSTPEAPYASLTEIEHLVQSVCKSYRETCQLRLEDLLRQRSNIFSREEVTGYQRKSMWEMWERCAHHLTEAIQYVVEFAKRLSGFMELCQNDQIVLLKAGAMEVVLVRMCRAYNADNRTVFFEGKYGGMELFRALGCSELISSIFDFSHSLSALHFSEDEIALYTALVLINAHRPGLQEKRKVEQLQYNLELAFHHHLCKTHRQSILAKLPPKGKLRSLCSQHVERLQIFQHLHPIVVQAAFPPLYKELFSTETESPVGLSK
B3: LXRb: Liver X Receptor β (NR1H2), cDNA driver (protein, UniProt P55055 1-460, looked up)
Oxysterols receptor LXR-beta: MSSPTTSSLDTPLPGNGPPQPGAPSSSPTVKEEGPEPWPGGPDPDVPGTDEASSACSTDWVIPDPEEEPERKRKKGPAPKMLGHELCRVCGDKASGFHYNVLSCEGCKGFFRRSVVRGGARRYACRGGGTCQMDAFMRRKCQQCRLRKCKEAGMREQCVLSEEQIRKKKIRKQQQESQSQSQSPVGPQGSSSSASGPGASPGGSEAGSQGSGEGEGVQLTAAQELMIQQLVAAQLQCNKRSFSDQPKVTPWPLGADPQSRDARQQRFAHFTELAIISVQEIVDFAKQVPGFLQLGREDQIALLKASTIEIMLLETARRYNHETECITFLKDFTYSKDDFHRAGLQVEFINPIFEFSRAMRRLGLDDAEYALLIAINIFSADRPNVQEPGRVEALQQPYVEALLSYTRIKRPQDQLRFPRMLMKLVSLRTLSSVHSEQVFALRLQDKKLPPLLSEIWDVHE
B4: RORa: RAR-related Orphan Receptor α (NR1F1), cDNA driver (protein, UniProt P35398 1-523, looked up)
Nuclear receptor ROR-alpha: MESAPAAPDPAASEPGSSGADAAAGSRETPLNQESARKSEPPAPVRRQSYSSTSRGISVTKKTHTSQIEIIPCKICGDKSSGIHYGVITCEGCKGFFRRSQQSNATYSCPRQKNCLIDRTSRNRCQHCRLQKCLAVGMSRDAVKFGRMSKKQRDSLYAEVQKHRMQQQQRDHQQQPGEAEPLTPTYNISANGLTELHDDLSNYIDGHTPEGSKADSAVSSFYLDIQPSPDQSGLDINGIKPEPICDYTPASGFFPYCSFTNGETSPTVSMAELEHLAQNISKSHLETCQYLREELQQITWQTFLQEEIENYQNKQREVMWQLCAIKITEAIQYVVEFAKRIDGFMELCQNDQIVLLKAGSLEVVFIRMCRAFDSQNNTVYFDGKYASPDVFKSLGCEDFISFVFEFGKSLCSMHLTEDEIALFSAFVLMSADRSWLQEKVKIEKLQQKIQLALQHVLQKNHREDGILTKLICKVSTLRALCGRHTEKLMAFKAIYPDIVRLHFPPLYKELFTSEFEPAMQIDG

Key:
hPPARg2 promoter = assay: NHR-promoter luciferase screen, hPPARg2 promoter; format: cell-based, human; details: for Luc. act., normalized to lacZ / Normalized Luc. act., normalized to control: PPARG2 promoter, hormone receptor with or without its ligand; for Normalized Luc. act., normalized to control: relative to control; for Results of assays of transcription factor (+/- ligand) with hPPARg2: Table 6d, luciferase activity relative to control (control = 1.00)
Description: (§1) The use, feasibility, and reproducibility of the functional NHR-promoter screen in a 48-well format have been tested validated. Briefly, there were co-expressed 50 ng of each NHR/NHR homodimer or NHR/RXR heterodimer with 100 ng promoter/luciferase construct and 50 ng of LacZ (as a control for transfection efficiency) in CV-1 cells using Fugene HD (Roche) as a transfection reagent (alternatively or additionally, a CMV-YFP construct can be used as a transfection control). Each of the nuclear hormone receptors that were used in these experiments was cloned into a pcDNA3.1 vector and comprised a C-terminally linked V5H6 tag. Twenty-four hours after transfection, appropriate ligands were added, where applicable, (see Table 5 for various ligands and concentrations and after 48 hrs, samples were assayed for luciferase and LacZ activity. To measure for luciferase activity 15 ul of sample was added to 30 ul of luciferase buffer (20 mM tricine, 1.07 mM MgCarbonate, 2.67 mM MgSulfate, 0.1 mM Naz-EDTA, 5 mM DTT, 5 mM ATP, 0.15 mg/ml CoA, 0.5 mM Luciferin), mixed briefly, and run in a Perkin Elmer Victor 5 luminometer. Thus, the functional NHR-promoter screen was used to observe the transcriptional activity of 29 promoters from various physiological pathways including inflammation, lipid and sugar metabolism, cholesterol transport, xenobiotic metabolism, and circadian rhythm.
(§2) The promoters that facilitate transcription of the indicated gene products that were tested using the protocols described herein are listed in the first row of the table. The nuclear hormone receptors and, where applicable, ligands that were assayed for their transcriptional effects on the promoters are listed in the first column of the table. The data represent the luciferase activity of each sample normalized to both the lacZ activity of that sample and to a control, e.g., no NHR or ligand, as customary in the art. As described previously, these normalizations allow the transcriptional activity of each reporter cell to be compared to other samples.
(§3) Tables 7-40 show the transcriptional effects of the hormone receptors, and, where applicable, ligands (orphan receptors are screened without ligand), on each individual promoter. […] The control data of each table are shown in their last rows.

mDio2 promoter = assay: NHR-promoter luciferase screen, mDio2 promoter; format: cell-based, mouse; details: for Luc. act., normalized to lacZ / Normalized Luc. act., normalized to control: Dio2, HR component without or with its ligand; for mDio2 promoter reporter activity: transcription factor +/- ligand, control = 1.00
Description: as §1, §2, §3

hMyoD promoter = assay: NHR-promoter luciferase screen, hMyoD promoter; format: cell-based, human; details: for Luc. act., normalized to lacZ / Normalized Luc. act., normalized to control: MyoD promoter reporter, co-transfected HR, without or with its ligand; for Normalized Luc. act., normalized to control: relative to control; for luciferase activity normalized to lacZ activity and to a control, hMyoD: hMyoD promoter-luciferase, CV-1 cells, NHR +/- ligand, control = 1.00
Description: as §1, §2, §3

MCP-1 promoter = assay: NHR-promoter luciferase screen, MCP-1 promoter; format: cell-based; details: for Normalized Luc. act., normalized to control / Luc. act., normalized to lacZ: MCP-1 promoter reporter; for Normalized Luc. act., normalized to control: HR without or with its ligand, relative to control; for Luc. act., normalized to lacZ: hormone receptor (HR) without or with its ligand; for mMCP-1 promoter reporter activity: transcription factor +/- ligand, control = 1.00
Description: as §1, §2, §3

mUCP2 promoter = assay: NHR-promoter luciferase screen, mUCP2 promoter; format: cell-based, mouse; details: for Luc. act., normalized to lacZ / Normalized Luc. act., normalized to control: mUCP2 promoter reporter, co-transfected HR, with or without its ligand; for Normalized Luc. act., normalized to control: relative to control; for luciferase activity normalized to lacZ activity and to a control, mUCP2: mUCP2 promoter-luciferase, CV-1 cells, NHR +/- ligand, control = 1.00
Description: as §1, §2, §3

mNPY promoter = assay: NHR-promoter luciferase screen, mNPY promoter; format: cell-based, mouse; details: for Results of assays of transcription factor (+/- ligand) with mNPY: Table 6d, luciferase activity relative to control (control = 1.00); for Luc. act., normalized to lacZ / Normalized Luc. act., normalized to control: mNPY promoter, HR component with or without ligand; for Normalized Luc. act., normalized to control: relative to control
Description: as §1, §2, §3

Molecule | Luc. act., normalized to lacZ (hPPARg2 promoter) | Normalized Luc. act., normalized to control (hPPARg2 promoter) | Results of assays of transcription factor (+/- ligand) with hPPARg2 (hPPARg2 promoter) | Luc. act., normalized to lacZ (mDio2 promoter) | Normalized Luc. act., normalized to control (mDio2 promoter) | mDio2 promoter reporter activity (mDio2 promoter) | Luc. act., normalized to lacZ (hMyoD promoter) | Normalized Luc. act., normalized to control (hMyoD promoter) | luciferase activity normalized to lacZ activity and to a control, hMyoD (hMyoD promoter) | Normalized Luc. act., normalized to control (MCP-1 promoter) | Luc. act., normalized to lacZ (MCP-1 promoter) | mMCP-1 promoter reporter activity (MCP-1 promoter) | Luc. act., normalized to lacZ (mUCP2 promoter) | Normalized Luc. act., normalized to control (mUCP2 promoter) | luciferase activity normalized to lacZ activity and to a control, mUCP2 (mUCP2 promoter) | Results of assays of transcription factor (+/- ligand) with mNPY (mNPY promoter) | Luc. act., normalized to lacZ (mNPY promoter) | Normalized Luc. act., normalized to control (mNPY promoter)
AR: Androsterone Receptor (NR3C4), cDNA driver | 2.7 | 1.3 | 1.34 | 19.7 | 1.3 | 1.26 | 57.5 | 0.9 | 0.91 | 0.6 | 62.4 | 0.58 | 196.6 | 1.8 | 1.79 | 1.12 | 93.8 | 1.1
TLX: Tailless (homolog of drosophila) (NR2E1), cDNA driver | 0.9 | 0.4 | 0.43 | 9.5 | 0.6 | 0.60 | 31.3 | 0.5 | 0.49 | 0.6 | 60.9 | 0.57 | 111.9 | 1.0 | 1.02 | 1.11 | 93.5 | 1.1
B1 | 2.0 | 1.0 | 1.02 | 33.6 | 2.1 | 2.14 | 65.5 | 1.0 | 1.03 | 0.7 | 78.0 | 0.73 | 136.4 | 1.2 | 1.24 | 0.52 | 43.5 | 0.5
B2 | 19.2 | 9.6 | 9.59 | 58.7 | 3.7 | 3.74 | 86.5 | 1.4 | 1.36 | 2.8 | 301.2 | 2.81 | 169.5 | 1.5 | 1.54 | 0.91 | 76.5 | 0.9
B3 | 2.4 | 1.2 | 1.19 | 18.1 | 1.2 | 1.15 | 54.6 | 0.9 | 0.86 | 1.9 | 198.9 | 1.86 | 170.7 | 1.6 | 1.55 | 0.81 | 68.0 | 0.8
B4 | 8.4 | 4.2 | 4.19 | 47.2 | 3.0 | 3.01 | 47.3 | 0.7 | 0.75 | 1.4 | 150.7 | 1.41 | 104.0 | 0.9 | 0.95 | 0.90 | 75.4 | 0.9
